# Laboratory results reported in the supplement of paper PMC9112550, “Optimization of the antimicrobial peptide Bac7 by deep mutational scanning” (BMC Biology, 2022).
# Tested on: Escherichia coli TOP10
# Assay: shrunken log2 fold change of peptide-encoding DNA abundance (4.5 h post-induction vs induction); higher = less antimicrobial activity (less host growth inhibition)
# Conditions: time post-induction: 4.5 h; library: site-saturation at positions 5, 18, 19, 20
# 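Further: peptides expressed intracellularly from a pBAD plasmid library in pooled LB shake-flask culture, induced with 0.3% L-arabinose, DNA abundance read by NGS, three biological replicates, DESeq2 with apeglm shrinkage.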
row,Sequence,shrunken log2 fold change
1,RRIRWRPPRLPRPRPRPKIAPRP,0.41
2,RRIRARPPRLPRPRPRPMWLPRP,0.0028
3,RRIRIRPPRLPRPRPRPIPEPRP,-0.158
4,RRIRHRPPRLPRPRPRPHAIPRP,-0.251
5,RRIRIRPPRLPRPRPRPNHMPRP,-0.361
6,RRIRYRPPRLPRPRPRPAVHPRP,-0.0328
7,RRIRRRPPRLPRPRPRPACSPRP,0.377
8,RRIRGRPPRLPRPRPRPVLGPRP,0.343
9,RRIRRRPPRLPRPRPRPEYQPRP,0.119
10,RRIRFRPPRLPRPRPRPYAPPRP,-0.496
11,RRIRWRPPRLPRPRPRPTVHPRP,-0.189
12,RRIRRRPPRLPRPRPRPHTHPRP,-0.11
13,RRIRDRPPRLPRPRPRPTSVPRP,-0.0218
14,RRIRPRPPRLPRPRPRPQGNPRP,-0.146
15,RRIRFRPPRLPRPRPRPAWYPRP,-0.103
16,RRIRERPPRLPRPRPRPKQRPRP,0.235
17,RRIRERPPRLPRPRPRPVGHPRP,-0.000999
18,RRIRGRPPRLPRPRPRPHYEPRP,-0.21
19,RRIRQRPPRLPRPRPRPDGMPRP,-0.199
20,RRIRVRPPRLPRPRPRPRQLPRP,0.276
21,RRIRVRPPRLPRPRPRPECIPRP,-0.0283
22,RRIRGRPPRLPRPRPRPQILPRP,-0.0843
23,RRIRLRPPRLPRPRPRPPCGPRP,0.191
24,RRIRMRPPRLPRPRPRPIHPPRP,-0.0207
25,RRIRHRPPRLPRPRPRPKAGPRP,-0.115

row,Sequence,shrunken log2 fold change
1,RRIRTRPPRLPRPRPRPWFEPRP,0.647
2,RRIRHRPPRLPRPRPRPEHIPRP,-0.142
3,RRIRDRPPRLPRPRPRPLREPRP,0.714
4,RRIRSRPPRLPRPRPRPQNWPRP,0.269
5,RRIRARPPRLPRPRPRPNDKPRP,-0.129
6,RRIRFRPPRLPRPRPRPPRFPRP,0.454
7,RRIRHRPPRLPRPRPRPLFKPRP,-0.183
8,RRIRFRPPRLPRPRPRPICIPRP,-0.399
9,RRIRPRPPRLPRPRPRPEPTPRP,0.416
10,RRIRKRPPRLPRPRPRPWIVPRP,-0.056
11,RRIRDRPPRLPRPRPRPCQPPRP,-0.144
12,RRIRYRPPRLPRPRPRPQAAPRP,-0.195
13,RRIRDRPPRLPRPRPRPNNMPRP,-0.0368
14,RRIRTRPPRLPRPRPRPYATPRP,-0.178
15,RRIRMRPPRLPRPRPRPKPAPRP,1.55
16,RRIRTRPPRLPRPRPRPNAHPRP,-0.102
17,RRIRMRPPRLPRPRPRPKLMPRP,0.718
18,RRIRGRPPRLPRPRPRPSIQPRP,0.176
19,RRIRCRPPRLPRPRPRPSVIPRP,-0.0544
20,RRIRARPPRLPRPRPRPVQRPRP,0.615
21,RRIRYRPPRLPRPRPRPCGYPRP,-0.467
22,RRIRIRPPRLPRPRPRPATMPRP,-0.0977
23,RRIRYRPPRLPRPRPRPTGSPRP,0.0529
24,RRIRLRPPRLPRPRPRPWQRPRP,-0.161
25,RRIRVRPPRLPRPRPRPDNHPRP,0.0415

row,Sequence,shrunken log2 fold change
1,RRIRYRPPRLPRPRPRPVRDPRP,-0.123
2,RRIRTRPPRLPRPRPRPLFIPRP,-0.746
3,RRIRPRPPRLPRPRPRPWGNPRP,-0.225
4,RRIRYRPPRLPRPRPRPPSNPRP,-0.266
5,RRIRKRPPRLPRPRPRPLSFPRP,-0.191
6,RRIRDRPPRLPRPRPRPIEYPRP,-0.029
7,RRIRGRPPRLPRPRPRPEDFPRP,0.149
8,RRIRHRPPRLPRPRPRPAPKPRP,-0.164
9,RRIRLRPPRLPRPRPRPTMTPRP,-0.256
10,RRIRHRPPRLPRPRPRPYWQPRP,-0.0678
11,RRIRCRPPRLPRPRPRPRGAPRP,0.766
12,RRIRQRPPRLPRPRPRPATRPRP,0.616
13,RRIRIRPPRLPRPRPRPVSFPRP,0.00232
14,RRIRQRPPRLPRPRPRPGCHPRP,-0.11
15,RRIRKRPPRLPRPRPRPYLKPRP,-0.525
16,RRIRSRPPRLPRPRPRPCAWPRP,-0.035
17,RRIRRRPPRLPRPRPRPWDGPRP,0.399
18,RRIRMRPPRLPRPRPRPWKIPRP,-0.0114
19,RRIRSRPPRLPRPRPRPELDPRP,0.674
20,RRIRMRPPRLPRPRPRPWFWPRP,0.221
21,RRIRNRPPRLPRPRPRPKIVPRP,-0.0195
22,RRIRERPPRLPRPRPRPWYCPRP,0.00607
23,RRIRNRPPRLPRPRPRPRQVPRP,-0.306
24,RRIRQRPPRLPRPRPRPFRLPRP,-0.00192
25,RRIRTRPPRLPRPRPRPMMMPRP,2.94

row,Sequence,shrunken log2 fold change
1,RRIRSRPPRLPRPRPRPGMRPRP,0.789
2,RRIRKRPPRLPRPRPRPVVKPRP,-0.0849
3,RRIRERPPRLPRPRPRPYIHPRP,-0.17
4,RRIRARPPRLPRPRPRPNALPRP,0.296
5,RRIRKRPPRLPRPRPRPKLYPRP,0.164
6,RRIRKRPPRLPRPRPRPMCYPRP,-0.00324
7,RRIRHRPPRLPRPRPRPVTLPRP,-0.175
8,RRIRQRPPRLPRPRPRPGGKPRP,-0.0313
9,RRIRMRPPRLPRPRPRPKFCPRP,0.0393
10,RRIRKRPPRLPRPRPRPPTCPRP,0.217
11,RRIRQRPPRLPRPRPRPYYMPRP,-0.614
12,RRIRNRPPRLPRPRPRPVYDPRP,-0.386
13,RRIRYRPPRLPRPRPRPLFVPRP,-0.507
14,RRIRRRPPRLPRPRPRPKKYPRP,-0.103
15,RRIRNRPPRLPRPRPRPNTSPRP,-0.0898
16,RRIRRRPPRLPRPRPRPPLEPRP,0.739
17,RRIRERPPRLPRPRPRPFRGPRP,-0.11
18,RRIRFRPPRLPRPRPRPDKLPRP,-0.505
19,RRIRWRPPRLPRPRPRPGMCPRP,0.437
20,RRIRFRPPRLPRPRPRPNRTPRP,-0.0619
21,RRIRRRPPRLPRPRPRPWYAPRP,-0.0635
22,RRIRMRPPRLPRPRPRPSVLPRP,0.0464
23,RRIRDRPPRLPRPRPRPRIHPRP,-0.563
24,RRIRKRPPRLPRPRPRPPRQPRP,0.82
25,RRIRQRPPRLPRPRPRPTCIPRP,-0.0736

row,Sequence,shrunken log2 fold change
1,RRIRYRPPRLPRPRPRPPKDPRP,0.0611
2,RRIRPRPPRLPRPRPRPYQYPRP,-0.292
3,RRIRKRPPRLPRPRPRPCHWPRP,0.139
4,RRIRIRPPRLPRPRPRPTHQPRP,0.0537
5,RRIRNRPPRLPRPRPRPHYEPRP,0.0239
6,RRIRLRPPRLPRPRPRPDRFPRP,-0.00452
7,RRIRHRPPRLPRPRPRPFMSPRP,-0.301
8,RRIRERPPRLPRPRPRPRFPPRP,0.0958
9,RRIRMRPPRLPRPRPRPHSHPRP,0.0536
10,RRIRCRPPRLPRPRPRPKCIPRP,-0.102
11,RRIRSRPPRLPRPRPRPMDYPRP,0.0691
12,RRIRIRPPRLPRPRPRPTCHPRP,-0.467
13,RRIRLRPPRLPRPRPRPSYSPRP,-0.589
14,RRIRTRPPRLPRPRPRPPAHPRP,0.252
15,RRIRDRPPRLPRPRPRPHMDPRP,0.0662
16,RRIRGRPPRLPRPRPRPGEPPRP,0.276
17,RRIRWRPPRLPRPRPRPDPQPRP,-0.00387
18,RRIRIRPPRLPRPRPRPSPRPRP,-0.0771
19,RRIRTRPPRLPRPRPRPMTPPRP,0.126
20,RRIRTRPPRLPRPRPRPCGVPRP,-0.175
21,RRIRERPPRLPRPRPRPKFCPRP,-0.267
22,RRIRTRPPRLPRPRPRPWGAPRP,0.211
23,RRIRKRPPRLPRPRPRPTRFPRP,0.436
24,RRIRQRPPRLPRPRPRPSEFPRP,-0.0736
25,RRIRPRPPRLPRPRPRPGRYPRP,0.37
